The source of these data is publication PMC12774657, “Multimodal bHLH-PAS DNA binding controls specificity and drives obesity”.

The data set concerns the target SIM1 bHLH-PASA-PASB;ARNT2 bHLH-PASA-PASB (;, UniProt P81133;Q9HBZ2 1-348;1-455, |). The data set is described as follows: EMSA; preferred over HIF2a probe; EMSA: 10 nM probe, 20 mM Tris pH 8.0, 250 mM NaCl, 16 ug/ml salmon sperm ssDNA, 30 ug/ml BSA, 1.25 mM MgCl2, 6% glycerol, 10 mM DTT, room temperature 30 min, 5-7% native PAGE. The following applies: protein: recombinant;recombinant; tags: 6xHis-TEV, tag removed;untagged; copies: 1;1; label: FAM (upper strand); blunt.

Sequence of SIM1 bHLH-PASA-PASB;ARNT2 bHLH-PASA-PASB (P81133 1-348, chain 1 of 2): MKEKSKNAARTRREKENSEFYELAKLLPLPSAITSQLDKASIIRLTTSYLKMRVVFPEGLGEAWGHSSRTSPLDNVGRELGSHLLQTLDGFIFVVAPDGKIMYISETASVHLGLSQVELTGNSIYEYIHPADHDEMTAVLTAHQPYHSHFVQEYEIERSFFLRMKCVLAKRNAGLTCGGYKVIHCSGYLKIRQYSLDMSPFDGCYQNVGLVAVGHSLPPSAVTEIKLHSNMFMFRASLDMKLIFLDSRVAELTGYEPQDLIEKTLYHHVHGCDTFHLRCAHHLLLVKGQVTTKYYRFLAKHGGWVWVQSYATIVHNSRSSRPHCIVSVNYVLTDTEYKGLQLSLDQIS
Sequence of SIM1 bHLH-PASA-PASB;ARNT2 bHLH-PASA-PASB (Q9HBZ2 1-455, chain 2 of 2): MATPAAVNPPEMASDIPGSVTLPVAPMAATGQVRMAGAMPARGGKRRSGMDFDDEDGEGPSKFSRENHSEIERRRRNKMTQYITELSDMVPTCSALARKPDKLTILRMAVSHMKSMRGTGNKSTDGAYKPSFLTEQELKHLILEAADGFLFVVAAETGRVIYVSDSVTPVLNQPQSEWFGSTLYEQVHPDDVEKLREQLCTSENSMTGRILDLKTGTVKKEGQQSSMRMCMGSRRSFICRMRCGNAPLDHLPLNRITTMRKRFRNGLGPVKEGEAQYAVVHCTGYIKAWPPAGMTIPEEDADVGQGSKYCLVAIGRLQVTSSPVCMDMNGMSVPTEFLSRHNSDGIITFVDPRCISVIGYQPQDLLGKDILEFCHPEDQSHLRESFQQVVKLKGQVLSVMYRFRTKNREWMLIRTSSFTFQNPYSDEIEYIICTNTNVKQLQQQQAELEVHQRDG

B1: SRE 22mer (top SIM1/ARNT2 probe) (dsDNA)
DNA 1: AAAAGGTACGTGACCAAAAAGA
DNA 2: TCTTTTTGGTCACGTACCTTTT
With B1, the binding result was “binds”.
